Data taken from patent US20240287172A1 (SCIRHOM, published 2024).
Positions count from the first letter of the chain named.

T1: hiR2-FL-L539A-T7 (human, UniProt Q6PJF5 1-856)
T1 construct: on MEF-DKO cells
T1 sequence: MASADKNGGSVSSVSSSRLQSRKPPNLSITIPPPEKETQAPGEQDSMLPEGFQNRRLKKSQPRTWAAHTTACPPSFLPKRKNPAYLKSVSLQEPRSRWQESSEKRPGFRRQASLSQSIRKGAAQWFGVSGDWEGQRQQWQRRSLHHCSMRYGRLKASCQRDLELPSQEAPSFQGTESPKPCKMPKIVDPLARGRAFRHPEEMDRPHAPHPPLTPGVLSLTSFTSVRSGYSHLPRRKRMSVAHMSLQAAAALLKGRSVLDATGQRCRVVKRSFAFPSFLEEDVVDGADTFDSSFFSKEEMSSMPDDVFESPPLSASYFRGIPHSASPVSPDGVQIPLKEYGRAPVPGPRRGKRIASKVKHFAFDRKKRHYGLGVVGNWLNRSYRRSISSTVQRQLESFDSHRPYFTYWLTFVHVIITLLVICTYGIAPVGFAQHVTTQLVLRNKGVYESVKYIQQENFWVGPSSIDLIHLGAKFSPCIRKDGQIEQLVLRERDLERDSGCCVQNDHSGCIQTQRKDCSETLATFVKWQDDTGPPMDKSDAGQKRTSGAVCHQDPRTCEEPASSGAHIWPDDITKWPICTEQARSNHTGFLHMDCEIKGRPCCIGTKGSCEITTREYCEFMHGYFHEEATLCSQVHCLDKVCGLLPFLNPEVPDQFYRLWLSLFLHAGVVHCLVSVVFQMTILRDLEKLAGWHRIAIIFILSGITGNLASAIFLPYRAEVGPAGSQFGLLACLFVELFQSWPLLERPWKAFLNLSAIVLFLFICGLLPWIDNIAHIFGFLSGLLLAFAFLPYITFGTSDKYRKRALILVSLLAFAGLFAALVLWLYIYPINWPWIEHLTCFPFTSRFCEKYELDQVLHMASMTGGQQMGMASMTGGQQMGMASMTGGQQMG

T2: hiR2-FL-H505R-T7 (human, UniProt Q6PJF5 1-856)
T2 sequence: T1 sequence with H505R, A539L

B1: antibody 3 (antibody, V domains shown)
VH: QVTLKESGPGILQPSQTLSLTCSFSGFSLTTFAMGIGWVRQPSGKGLEWLAHIWWDGEKYNNPVLKSRLTISKDTSKNQVFLRIANVDTPDTATYYCARISSIYYIIDNWGQGTSVTVSS
VL: DIVLTQSPATLSVTPGHSVSLSCRASQSISNNLHWYQKKSHESPRLLIKYVSQSISGIPSRFSGSGSGTDFTLSINSVETEDFGMYFCQQSYNWPLTFGAGTKLELK
notes: mouse IgG, kappa light chain; also called clone #3; purified antibody 3
B2: antibody 50 (antibody, V domains shown)
VH: QVQLQQSGAELVRPGASVKVSCKASGYAFSNYLIEWVKQRPGQGLEWIGVINPGSGFTKYNEKFKGKATLTADKSSSTAYMQLSSLTSEDSAVYFCARGLYRAMDYWGQGTSVTVSS
VL: DIQMTQSPASQSASLGESVTITCLASQTIGTWLAWYQQKPGKSPQLLIYAAASLADGVPSRFSGGGSGTKFSFKISSLQAEDFVNYYCQQIYSTPYTFGGGTKLEIK
notes: mouse IgG, kappa light chain; also called clone #50; purified antibody 50

What was measured:
hiR2-FL-L539A-T7 = target: T1, hiR2-FL-L539A-T7; test: FACS on MEF-DKO-hiR2-FL-L539A-T7 cells
hiR2-FL-H505R-T7 = target: T2, hiR2-FL-H505R-T7; test: FACS, MEF-DKO cells, 3 µg/ml

Binder	binding result (hiR2-FL-L539A-T7)	loss of binding vs wild type (hiR2-FL-H505R-T7) [%]
B1	no binding (tested: 3 µg/ml)	
B2		≥ 95
